Source: paper PMC8270905, “Structural basis of LAIR1 targeting by polymorphic Plasmodium RIFINs” (Nature Communications, 2021)

T1: RIFIN (PF3D7_1040300) V2 domain, His-tagged (Plasmodium falciparum 3D7, UniProt Q8IJ06 184-328)
T1 construct: RIFIN PF3D7_1040300 (RIF1) of Plasmodium falciparum 3D7, variable domain 2 (V2); PDB 7JZI holds the V2 domain of this RIFIN; also called RIF1; source: Expi293F or Expi293 GnTI- cells, transfected
T1 sequence: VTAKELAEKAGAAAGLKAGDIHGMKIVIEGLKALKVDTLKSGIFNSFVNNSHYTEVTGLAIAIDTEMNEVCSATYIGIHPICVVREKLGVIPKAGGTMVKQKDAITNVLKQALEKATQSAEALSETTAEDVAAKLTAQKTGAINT


Experiments:
[1] = molecular target: RIFIN (co-IP of the LAIR1 mutation series, Fig. 2c); assay: co-immunoprecipitation (Protein A Co-IP, SDS-PAGE band quantification); conditions: LAIR1 Fc tag; RIFIN-V2 MBP tag; n = 3 independent measurements; parent: est. 3.0; read off a plot
[2] = molecular target: RIFIN (co-IP of the LAIR1 mutation series, Fig. 2c) (Plasmodium falciparum 3D7); assay: co-IP; conditioned media incubated with protein A resin for one hour at room temperature; Fc-tagged RIFIN or LAIR1 pulled down, partner without Fc co-pulled down; SDS-PAGE, Coomassie blue, bands quantified with ImageJ
[3] = molecular target: T1, RIFIN (PF3D7_1040300) V2 domain, …; assay: BLI; fortéBio Octet Red384; His-tagged RIFIN V2 domain immobilised on Ni-NTA biosensors, dipped into LAIR1 or MGD21 in a twofold concentration series; global fit, 1:1 Langmuir model; conditions: both partners purified

Molecule	other: % pulldown vs MGD21 (% of MGD21 LAIR1 pulldown) [1]	fold increase in affinity over native LAIR1 [2] [fold]	other results
native human LAIR1 (from UniProt Q6GTX8) T151L; N153S; P190S; P191R	62		
native human LAIR1 (from UniProt Q6GTX8) T151L; N153S	66		
LAIR1 T151L (receptor)		10	
native human LAIR1 (from UniProt Q6GTX8) T151L; N153S; A161T; P190S; P191R	58		
LAIR1 N153S (receptor)		10	
native human LAIR1 (receptor, N-linked glycosylation at N153 (MGD21 numbering), Leukocyte-associated immunoglobulin-like receptor 1 (LAIR1), human, unmutated; Probably the same limits as the MGD21 LAIR1 ectodomain; also called hLAIR1; unmutated (native) LAIR1; source: Expi293F or Expi293 GnTI- cells, transfected) QEEDLPRPSISAEPGTVIPLGSHVTFVCRGPVGVQTFRLERDSRSTYNDTEDVSQASPSESEARFRIDSVREGNAGLYRCIYYKPPKWSEQSDYLELLVKE			Kd [3]: > 1000 nM
